Measured values reported in publication PMC9005348.

Target: rsGCaMP.LP294TR.ΔRSET (rsGCaMP1.1)
Assay: crystal structure; crystals with domain-swapped dimers; for rsGCaMP1.1 the C2 space group, two molecules in the asymmetric unit; Ca2+-bound protein

Substance: rsGCaMP.LP294TR.ΔRSET (rsGCaMP1.1)
- stoichiometry N: 2
